According to patent US9957295B2, “Peptides inhibiting cold-inducible RNA binding protein activity” (The Feinstein Institute for Medical Research, priority 2013, dated 2018):

Legend:
[1] = tested on: THP-1 cells; test: TNF-α release from differentiated THP-1 cells stimulated with recombinant proteins; type: cell-based, human; conditions: 0.3 μg/ml each protein, 8 h, ELISA
Experimental: As with the murine model, the stimulation of TNF-α, release by rCIRP in a human model was studied. […] These experiments were conducted by incubating differentiated human THP-1 cells with rhCIRP or rmCIRP at the indicated concentrations for 4 h. *P<0.05 vs. no CIRP. Similarly, human PBMC were incubated with the indicated concentrations of rhCIRP for 8 h. *P<0.05 vs. no rhCIRP. Thus, stimulation of cytokine release by CIRP was not attributable to LPS contamination. Furthermore, CIRP-induced cytokine activation was conserved between rodents and humans.
rmCIRP induced TNF-α and HMGB1 release in macrophages (FIGS. 10a, b and c). It was reported that HMGB1 can also stimulate TNF-α release (Andersson, U., et al. High mobility group 1 protein (HMG-1) stimulates proinflammatory cytokine synthesis in human monocytes. J. Exp. Med. 192, 565-570 (2000)). The relationship between CIRP and HMGB1 on stimulating TNF-α release was analyzed by applying respective neutralizing antibodies. […] After 4 h, TNF-α levels in conditioned medium (CM) were assayed by ELISA. Data are mean±s.e.m. from three independent experiments. *P<0.05 vs. rmCIRP+ control IgG. In FIG. 16D, RAW 264.7 cells were pre-incubated with rabbit control IgG or anti-CIRP antibodies at indicated dilutions of 1 mg/ml for 20 min before adding 1.0 μg/ml rmCIRP. After 4 h, TNF-α levels in CM were assayed by ELISA. Data are mean±s.e.m. from three independent experiments. *P<0.05 vs. rmCIRP+ control IgG. THP-1 cells were incubated with 4 μg/ml of anti-CIRP antibodies, anti-HMGB1 antibodies, or non-immunized control IgG for 1 h prior to adding rmCIRP (0.3 μg/ml), rmHMGB1 (0.3 μg/ml), or rmCIRP/rmHMGB1 (0.3 μg/ml, 0.3 μg/ml) for 8 h. *P<0.05 vs. rmCIRP; #P<0.05 vs. rmHMGB1. […] Furthermore, rmCIRP, rmHMGB1, and rmCIRP plus rmHMGB1 induced TNF-α levels of 0.8, 0.6, and 1.6 ng/ml, respectively. […] TNF-α levels in all collected CM were assayed by ELISA. Data are mean±s.e.m. from three or four independent experiments.
Murine macrophage-like RAW 264.7 cells and human monocyte THP-1 cells were obtained from ATCC (Manassas, Va.). […]

[2] = tested on: healthy rats; test: Administration of recombinant CIRP to healthy rats; type: in vivo, rat
Experimental: As an index of the inflammatory cytokine cascade and the acute inflammatory response, supernatants from cells incubated with recombinant CIRP were measured for TNF-α and IL-6 levels in serum, tissue homogenates, and culture medium grown with macrophages using a commercially available enzyme-linked immunosorbent assay (ELISA) kits (BioSource International, Camarillo, Calif.) according to the manufacturer's instruction. To quantify TNF-α and IL-6 protein levels in serum and tissue, serum samples were harvested 4 h after hemorrhage, or 4 h after treatment with recombinant CIRP from animals by cardiac puncture at the time that the rats were sacrificed, and collected tissue samples, and carried out by the same method as above. HMGB1 levels were determined by Western blotting.
Serum concentrations of aspartate aminotransferase (AST), alanine aminotransferase (ALT), and lactate were determined by using assay kits according to the manufacturer's instructions (Pointe Scientific, Lincoln Park, Mich.).
Healthy rats were intravenously administered rmCIRP (1 mg/kg BW) or normal saline (vehicle). After the injection of rCIRP (1 mg/kg BW) or buffer solution (same volume), as control, serum levels of TNF-α increased markedly in the rCIRP group, about 5 fold higher than buffer (sham) group (FIG. 4A). […] RAW 264.7 cells were incubated with indicated concentrations of rmCIRP for 20 h. HMGB1 levels in conditioned medium (CM) were determined by Western blotting. Band intensities were quantified with densitometry. […] After 4 hours, blood and tissues were collected for analysis. […] Data are mean±s.e.m., n=6-9/group, *P<0.05 vs. vehicle.
In additional groups of normal healthy animals, rCIRP, for example rmCIRP (1 mg/kg BW) or buffer (same volume, 1 ml) were administered. At 4 h after the completion of treatment, blood samples were collected and placed on ice to allow clotting, and then were centrifuged at 1200 g for 10 min at 4° C., and the serum samples were stored at −80° C. until assayed. […]

B1: rmCIRP: recombinant murine (rat sequence) His-tagged CIRP expressed in E. coli (protein)
chain: MASDEGKLFVGGLSFDTNEQALEQVFSKYGQISEVVVVKDRETQRSRGFGFVTFENIDDAKDAMMAMNGKSVDGRQIRVDQAGKSSDNRSRGYRGGSAGGRGFFRGGRSRGRGFSRGGGDRGYGGGRFESRSGGYGGSRDYYASRSQGGSYGYRSSGGSYRDSYDSYATHNEHHHHHH
induced TNF-α levels [1]: 0.8 ng/mL
serum TNF-α versus buffer (sham) group ([2]; 1 mg/kg BW): about 5 fold
serum TNF-α, IL-6, HMGB1 levels and organ injury markers AST and ALT ([2]; 1 mg/kg BW intravenous, 4 hours, vs normal saline): significantly increased
serum levels of AST and ALT ([2]; 1 mg/kg BW, normal healthy rats): significantly elevated
